Data from patent US20250281631A1 (SICHUAN KELUN BIOTECH BIOPHARMACEUTICAL, published 2025).

Key:
[1] = target: T1, human epidermal growth factor receptor 3 (HER3) (human, UniProt P21860 20-1342); assay: cell-based or functional assay
[2] = target: T1, human epidermal growth factor receptor …; assay: flow cytometry on A431 cells
Procedure: (§1) The affinity of anti-human HER3 ADC to MDA-MB-453, NCI-H358, KPL-4, and A431 cells was detected by flow cytometry (Beckman, model Cytoflex).
(§2) Adherent MDA-MB-453, NCI-H358, KPL-4, A431 cells were digested with Tryple (manufacturer: Gibco) solution, counted, and an appropriate amount of the cells were taken, washed twice with 1×PBS, resuspended in 1% BSA in PBS solution, and then transferred to a 96-well sharp-bottom plate, 50 μl per well; candidate antibodies and drug conjugates thereof were diluted with 1% BSA in PBS solution by 3-fold or 2.5-fold serial dilution starting from 5 μg/mL, and then 50 μl of the diluted antibody or antibody-drug conjugate was added to the sharp-bottom plate containing the cells, and incubation was carried out at 4° C. for 40 minutes; the cells were washed twice with PBS, then added with 50 μl of diluted secondary antibody to each well, mixed, and incubated at 4° C. for 30 minutes; the cells were washed with PBS twice, then resuspended in 400 μl of PBS and detected by flow cytometry. Data processing: the average fluorescence signal values were exported, and then input into GraphPad Prism 6 software to calculate EC50.

[3] = target: T1, human epidermal growth factor receptor …; assay: flow cytometry on NCI-H358 cells
Procedure: as §1, §2

[4] = target: T1, human epidermal growth factor receptor …; assay: flow cytometry on KPL-4 cells
Procedure: as §1, §2

[5] = target: T1, human epidermal growth factor receptor …; assay: flow cytometry on MDA-MB-453 cells (second experiment, dilution from 15 ug/mL)
Procedure: The affinity of anti-human HER3 ADC to MDA-MB-453 cells was detected by flow cytometry (Beckman, model Cytoflex).
Adherent MDA-MB-453 cells were digested with Tryple (manufacturer: Gibco) solution, counted, and an appropriate amount of the cells were taken, washed twice with 1×PBS, resuspended in 1% BSA solution, and then transferred to a 96-well sharp-bottom plate, 50 μl per well; candidate antibodies and drug conjugates thereof were diluted with 1% BSA by 3-fold serial dilution starting from 15 μg/mL, and then 50 μl of the diluted antibody or antibody-drug conjugate was added to the sharp-bottom plate containing the cells, and incubation was carried out at 4° C. for 40 minutes; the cells were washed twice with PBS, then added with 50 μl of diluted secondary antibody to each well, mixed, and incubated at 4° C. for 30 minutes; the cells were washed with PBS twice, then resuspended in 200 μl of PBS and detected by flow cytometry. Data processing: the average fluorescence signal values were exported, and then input into GraphPad Prism 6 software to calculate EC50.

[6] = target: T1, human epidermal growth factor receptor …; assay: flow cytometry on MDA-MB-453 cells
Procedure: as §1, §2

Row | Binder | IC50 (nM), in vitro cytotoxicity (CCK8, 6 days) on HEK293T-hHER3 cells [1] | EC50 [2] | EC50 [3] | EC50 [4] | EC50 [5] | IC50 (nM), in vitro cytotoxicity (CCK8, 6 days) on HCC1569 cells [1] | IC50 (nM), in vitro cytotoxicity (CCK8, 6 days) on MDA-MB-453 cells [1] | EC50 [6]
1 | ADC 22B6-A-01 (antibody, human IgG1, kappa, V domains shown, drug-linker A-01 on a cysteine sulfhydryl group; LC-DAR1 ratio 0.990; drug-linker A-01 on cysteine sulfhydryl groups after TCEP reduction; mainly 3 per heavy chain (HC-DAR3 ratio 0.981)) VH: EVHLVESGGGVVQPGRSLRLSCATSGFTFRSYGMHWVRQAPGKGLEWVAVIWYDGSNKYYADSVKGRFTISRDISKNTLYLQMNSLTAEDTAVYYCARYYYDSNGYYDAFDIWGQGTMVTVSS VL: DIQLTQSPSFLSASVGDRVTITCRASQGISNYLAWYQQKPGKAPKLLIFAASTLQSGVPSRFSGSGSGAEFTLTISSLEPEDFATYYCQQLNSYPITFGQGTRLEIKR | 0.0014 nM | 0.0307 µg/mL | 0.0445 µg/mL | 0.0387 µg/mL |  |  |  | 
2 | ADC 22B6-A-07-A-1 (antibody, human IgG1, kappa, V domains shown, drug-linker A-07-A on a cysteine sulfhydryl group; mainly 1 per light chain (LC-DAR1 ratio 0.998); drug-linker A-07-A on cysteine sulfhydryl groups after TCEP reduction; mainly 3 per heavy chain (HC-DAR3 ratio 0.966)) VH: EVHLVESGGGVVQPGRSLRLSCATSGFTFRSYGMHWVRQAPGKGLEWVAVIWYDGSNKYYADSVKGRFTISRDISKNTLYLQMNSLTAEDTAVYYCARYYYDSNGYYDAFDIWGQGTMVTVSS VL: DIQLTQSPSFLSASVGDRVTITCRASQGISNYLAWYQQKPGKAPKLLIFAASTLQSGVPSRFSGSGSGAEFTLTISSLEPEDFATYYCQQLNSYPITFGQGTRLEIKR | 0.0038 nM | 0.0284 µg/mL | 0.0329 µg/mL | 0.0325 µg/mL | 0.147 µg/mL | 15.6 nM | 19 nM | 0.056 µg/mL
3 | ADC 22B6-B-01 (antibody, human IgG1, kappa, V domains shown, drug-linker B-01 on a cysteine sulfhydryl group; LC-DAR1 ratio 0.999; drug-linker B-01 on cysteine sulfhydryl groups after TCEP reduction; mainly 3 per heavy chain (HC-DAR3 ratio 0.933)) VH: EVHLVESGGGVVQPGRSLRLSCATSGFTFRSYGMHWVRQAPGKGLEWVAVIWYDGSNKYYADSVKGRFTISRDISKNTLYLQMNSLTAEDTAVYYCARYYYDSNGYYDAFDIWGQGTMVTVSS VL: DIQLTQSPSFLSASVGDRVTITCRASQGISNYLAWYQQKPGKAPKLLIFAASTLQSGVPSRFSGSGSGAEFTLTISSLEPEDFATYYCQQLNSYPITFGQGTRLEIKR |  | 0.0328 µg/mL | 0.0298 µg/mL | 0.0519 µg/mL |  |  |  | 
4 | U1-59 (HER3 control antibody) (antibody, V domains shown) VH: QVQLQQWGAGLLKPSETLSLTCAVYGGSFSGYYWSWIRQPPGKGLEWIGEINHSGSTNYNPSLKSRVTISVETSKNQFSLKLSSVTAADTAVYYCARDKWTWYFDLWGRGTLVTVSS VL: not shown |  |  |  |  | 0.684 µg/mL |  |  | 0.426 µg/mL
5 | 22B6D2-hIgG1 (antibody, V domains shown) VH: EVHLVESGGGVVQPGRSLRLSCATSGFTFRSYGMHWVRQAPGKGLEWVAVIWYDGSNKYYADSVKGRFTISRDISKNTLYLQMNSLTAEDTAVYYCARYYYDSNGYYDAFDIWGQGTMVTVSS VL: DIQLTQSPSFLSASVGDRVTITCRASQGISNYLAWYQQKPGKAPKLLIFAASTLQSGVPSRFSGSGSGAEFTLTISSLEPEDFATYYCQQLNSYPITFGQGTRLEIKR |  |  |  |  | 0.0854 µg/mL |  |  | 0.0392 µg/mL
6 | ADC 22B6-B-04-02 (antibody, human IgG1, kappa, V domains shown, drug-linker B-04 on cysteine sulfhydryl groups after TCEP reduction (overall DAR 6.87; split between the chains not given), Antibody-drug conjugate of 22B6D2-hIgG1 with drug-linker B-04; also called 22B6-B-04-2) VH: EVHLVESGGGVVQPGRSLRLSCATSGFTFRSYGMHWVRQAPGKGLEWVAVIWYDGSNKYYADSVKGRFTISRDISKNTLYLQMNSLTAEDTAVYYCARYYYDSNGYYDAFDIWGQGTMVTVSS VL: DIQLTQSPSFLSASVGDRVTITCRASQGISNYLAWYQQKPGKAPKLLIFAASTLQSGVPSRFSGSGSGAEFTLTISSLEPEDFATYYCQQLNSYPITFGQGTRLEIKR |  |  |  |  | 0.195 µg/mL |  |  | 
7 | ADC 100H7-A-07-A (antibody, human IgG1, kappa, V domains shown, drug-linker A-07-A on a cysteine sulfhydryl group; LC-DAR1 ratio 1.000; drug-linker A-07-A on cysteine sulfhydryl groups after TCEP reduction; mainly 3 per heavy chain (HC-DAR3 ratio 0.989)) VH: EVQLVESGGGVVLPGRSLRLSCAASGFTFSRNAMHWVRQAPGKGLEWVAVIWHDGSNKYYGDSVKGRFTISRDNSKNTLYLQMDSLTAEDTAVYYCARDRGASDFRGQGTLVTVSS VL: DIQMTQSPSTLSASVGDRVTITCRASQSINNWLAWYQQKPEKAPKLLIYKASSLESGVPSRFSGSGSGTEFTLTISSLQPDDFATYYCQQYNSYSLTFGGGTKVEIKR |  | 0.266 µg/mL | 0.427 µg/mL | 0.274 µg/mL |  |  |  | 
8 | ADC 47A3-A-07-A (antibody, human IgG1, kappa, V domains shown, drug-linker A-07-A on a cysteine sulfhydryl group; LC-DAR1 ratio 0.820; drug-linker A-07-A on cysteine sulfhydryl groups after TCEP reduction; HC-DAR3 ratio 0.760, HC-DAR0 ratio 0.222) VH: EVQLQESGPGLVKPSQTLSLTCAISGDSVSSSQSTWNWIRQSPSRGLEWLGRTFYRSRWYNDYALSMKSRITINPDTSKNQFSLQLNPVTPEDTAVYYCARDTYYYGSGGFDYWGQGSRVTVSS VL: DIQMTQSPSTLSASVGDRVTITCRASQSLSRWLAWYQQKPEKAPKLLIYKASSLESGVPSRFSGSGSGTEFTLTISTLQPDDFATYYCQQYKNYYSFGQGTKLEIKR |  | 0.0656 µg/mL | 0.158 µg/mL | 0.125 µg/mL |  |  |  | 
